US11339371B2, “Method for inducing pluripotent stem cells to differentiate into ventricular myocytes in vitro” (Institute of Biophysics, Chinese Academy of Sciences, priority 2012, dated 2022)

B1: BMP4: bone morphogenetic protein, growth factor activating Smad1/5/8 signaling; purchased from R&D systems (protein, UniProt P12644 293-408, looked up)
Bone morphogenetic protein 4: SPKHHSQRARKKNKNCRRHSLYVDFSDVGWNDWIVAPPGYQAFYCHGDCPFPLADHLNSTNHAIVQTLVNSVNSSIPKACCVPTELSAISMLYLDEYDKVVLKNYQEMVVEGCGCR
B2: noggin: BMP2/4 pathway inhibitor (BMP antagonist); purchased from R&D systems (protein, UniProt Q13253 28-232, looked up)
Noggin: QHYLHIRPAPSDNLPLVDLIEHPDPIFDPKEKDLNETLLRSLLGGHYDPGFMATSPPEDRPGGGGGAAGGAEDLAELDQLLRQRPSGAMPSEIKGLEFSEGLAQGKKQRLSKKLRRKLQMWLWSQTFCPVLYAWNDLGSRFWPRYVKVGSCFSKRSCSVPEGMVCKPSKSVHLTVLRWRCQRRGGQRCGWIPIQYPIISECKCSC

Experiments:
Type in all cases: cell-based, human
differentiated CMs [1] = assay: action potential classification of differentiated CMs (patch clamp); conditions: for proportion of CMs with ventricular-like APs: treatment alone during middle stage, differentiated CMs at 90 days
Protocol: (§1) In some embodiments, from about day 14 of differentiation, growth factor-free medium is used and replaced every 3 days. After about 60 to about 90 days of differentiation, the percentage of VMs in the differentiated CMs was determined with the analysis of APs of CMs (recorded by the patch clamp technique), calcium imagining studies, and/or MLC-2v and cardiac troponin T (cTNT) double immunofluorescence staining for flow cytometric analysis.
(§2) RA represents 1 μM retinoic acid; B represents BMP4; NVa represents vitamin A-free medium; N represents noggin; and numbers represent the concentrations (Unit is ng/mL). The RARγ concentration is 0.1 μM.
(§3) 5) As mentioned above, during early differentiation of CMs, IRX-4 is an important gene with specific expression in differentiated VMs. As CMs mature, VMs begin to specifically express the MLC-2v gene. Thus, the MLC-2v expression level was measured in differentiated cells at day 90 of culture after treatment with various growth factors. […] Moreover, flow cytometry was performed to determine the proportion of MLC-2v-expressing VMs among differentiated CMs (cTNT-expressing cells) at day 90. […] The most classical method to identify the subtypes of CMs is to measure the APs of the CMs. The proportions of cells with atrial-, ventricular-, and nodal-like APs among differentiated CMs were analyzed after treatment with retinoic acid and various doses of BMP4 (FIG. 8).

[2] = tested on: MLC-2v-expressing VMs among differentiated CMs; assay: flow cytometry of MLC-2v-expressing cells among cTNT-expressing CMs at day 90; conditions: for proportion of MLC-2v-expressing cells among differentiated CMs: day 90
Protocol: as §1, §2, §3

IRX-4 = assay: quantitative RT-PCR of ventricle-specific early marker gene IRX-4 at day 14 of differentiation; conditions: for IRX-4 expression level (FIG. 2A): added to the cultures at various concentrations, relative to GADPH
Text: T-Smad1/5/8 represents total Smad1/5/8 proteins. β-actin served as an internal loading control. The histogram in FIG. 1C presents the experimental results of quantitative RT-PCR analysis of IRX-4 gene expression levels at 14 days of differentiation. […] Connected line indicates the cardiac differentiation efficiency of the stem cells under the corresponding inductive conditions. N represents noggin, B represents BMP4; NVa represents differentiated cells cultured in vitamin A-free medium; RA represents retinoic acid; and numbers represent the concentrations (Unit for BMP4 is ng/mL). Data are expressed as relative values compared with the expression level of glyceraldehyde-3-phosphate dehydrogenase (GADPH).
FIG. 2 presents quantitative RT-PCR analysis of the expression levels of the ventricle-specific early marker gene IRX-4 at day 14 in differentiated cultures with various treatments. […] However, the expression level is reduced by addition of a BMP antagonist, noggin. […] N represents noggin; B represents BMP4, NVa represents differentiated cells treated in vitamin A-free medium; RA represents retinoic acid; and numbers represents the concentrations (Unit is ng/mL). The results of quantitative RT-PCR are indicated as relative values compared with the expression levels of GADPH.
RA represents retinoic acid; RAi represents a retinoic acid inhibitor, BMS189453; NVa represents vitamin A-free medium; The RAR pan-antagonist is BMS493. The results of quantitative RT-PCR are expressed as relative values compared with cTNT expression
2) The role of the BMP pathway in directed differentiation of CM subtypes was analyzed further during cardiac differentiation of stem cells. IRX-4 is a marker gene expressed during early differentiation of VMs. Thus, the IRX-4 expression level was measured to further study the role of the BMP pathway in differentiation of CM subtypes.

BMP2 = assay: quantitative RT-PCR of BMP2 expression at day 6 of differentiation; conditions: added with DKK1, vitamin A-free medium
Text: The results of quantitative RT-PCR are indicated as relative values compared with those of GADPH. NVa represents vitamin A-free medium.
Additionally, in vitamin A-containing medium, early specific IRX-4 expression in VMs was activated by addition of DKK1 and antagonists of RARα and RAR. This indicated induced differentiation of stem cells into VMs. Because retinoic acid has three RARs receptors (RARα, RARβ, and RARγ), simultaneous inhibition of RARα and RARβ in the presence of vitamin A or retinoic acid has a similar mechanism and effect as that of independent activation of RARγ alone.

differentiated CMs [3] = assay: calcium imaging of differentiated CMs by confocal laser scanning microscopy at 60-90 days; conditions: 60-90 days of differentiation
Text: FIG. 5 presents images from confocal laser scanning microscopy and simultaneous recordings of APs of calcium activity in differentiated CMs and the classification of the differentiated CMs according to the specific calcium activity patterns in the various types of CMs. […] FIG. 5B presents the proportions of CMs with Ca^2+ sparks, Ca^2+ transients, and Ca^2+ oscillations in different treatments as classified by calcium signaling patterns of the various subtypes of CMs in A. The vertical axis represents the proportions of CMs with the three different calcium activities; RA represents 1 μM retinoic acid; Letter B represents BMP4; NVa represents vitamin A-free medium; N represents noggin; and numbers represent the concentrations (ng/mL).
4) To verify the role of the BMP pathway in regulating the differentiation of VMs from stem cells, calcium activities of cardiomyocytes were recorded with confocal laser scanning microscopy at 60-90 days of differentiation. Calcium activity in VMs clearly differs from that in AMs and nodel cells. Calcium activity in VMs has a higher imaging frequency, known as Ca^+ sparks. […] Thus, comparing the image pattern of calcium activities in CMs is an effective method to distinguish VMs from AMs and nodel cells.

MLC-2v = assay: western blot of MLC-2v expression in differentiated cells at day 90
Protocol: FIG. 4B presents the results of double immunofluorescence staining of cTNT and MLC-2v in CMs at day 90 of differentiation after retinoic acid, BMP4, and noggin treatments. Letter B in the figures represents BMP4, NVa represents differentiated cells cultured in vitamin A-free medium; RA represents 1 μM retinoic acid; and numbers represent the concentrations (ng/mL).
as §3

Molecule	proportion of CMs with ventricular-like APs (differentiated CMs [1])	proportion of MLC-2v-expressing cardiomyocytes in cardiomyocytes population (cTNT-expressing cells) ([2]; 90 days of differentiation, 0.1 μM, vitamin A-free medium)	ventricle-specific IRX-4 expression (IRX-4; added along with DKK1 during middle stage of cardiac differentiation, vitamin A-free medium, relative to cTNT)	BMP2 expression (BMP2)	proportion of cells with ventricular-like APs (differentiated CMs [1]; differentiated CMs after retinoic acid treatment, increasing doses of BMP4)	proportion of cells with Ca+ sparks among differentiated CMs (differentiated CMs [3]; retinoic acid plus increasing BMP4)	proportion of cells with Ca+ transients among differentiated CMs (differentiated CMs [3]; retinoic acid treatment, with or without BMP4)	MLC-2v protein expression level (MLC-2v)	proportion of MLC-2v-expressing cells among differentiated CMs ([2]; BMP4 added to cells after retinoic acid treatment)	proportion of MLC-2v-expressing cells among differentiated CMs ([2]; BMP4 treatment alone)	IRX-4 expression level in retinoic acid-treated culture (IRX-4; added simultaneously with 1 μM retinoic acid, day 5 to day 8, various doses)	IRX-4 expression level (FIG. 2A) (IRX-4; day 14)	elevation of the IRX-4 expression level by BMP4 in the presence of retinoic acid (FIG. 2D) (IRX-4; increasing concentrations of noggin, day 14)	IRX-4 expression level (IRX-4; vitamin A-free medium, added day 5 to day 8 of differentiation, 300, 600, 1200 ng/mL)
CC1(C)CCC(C)(C)c2cc([C@@H](O)C(=O)Nc3ccc(C(=O)O)cc3F)ccc21 [RARγ, reference compound]	92%	up to 80%	high expression	high expression	–	–	–	–	–	–	–	–	–	–
B1	more than 90%	–	–	–	increased significantly	increased with increasing concentrations of BMP4	decreased with increasing concentrations of BMP4	increased with increasing concentrations of BMP4	effectively increased	highest proportion	increased correspondingly	elevated with increasing concentrations of BMP4	–	–
B2	–	–	–	–	–	–	–	–	–	–	–	reduced	reduced with additions of increasing concentrations of noggin	effectively reduced
